In article PMC11230231 (bioRxiv, 2024):

Target: integrin α5β1 on cells (human (endogenous in K562 and MCF10A), UniProt P08648;P05556)
Assay: flow cytometry on cells

integrin α5β1 on cells, sequence (P08648 42-1049, chain 1 of 2): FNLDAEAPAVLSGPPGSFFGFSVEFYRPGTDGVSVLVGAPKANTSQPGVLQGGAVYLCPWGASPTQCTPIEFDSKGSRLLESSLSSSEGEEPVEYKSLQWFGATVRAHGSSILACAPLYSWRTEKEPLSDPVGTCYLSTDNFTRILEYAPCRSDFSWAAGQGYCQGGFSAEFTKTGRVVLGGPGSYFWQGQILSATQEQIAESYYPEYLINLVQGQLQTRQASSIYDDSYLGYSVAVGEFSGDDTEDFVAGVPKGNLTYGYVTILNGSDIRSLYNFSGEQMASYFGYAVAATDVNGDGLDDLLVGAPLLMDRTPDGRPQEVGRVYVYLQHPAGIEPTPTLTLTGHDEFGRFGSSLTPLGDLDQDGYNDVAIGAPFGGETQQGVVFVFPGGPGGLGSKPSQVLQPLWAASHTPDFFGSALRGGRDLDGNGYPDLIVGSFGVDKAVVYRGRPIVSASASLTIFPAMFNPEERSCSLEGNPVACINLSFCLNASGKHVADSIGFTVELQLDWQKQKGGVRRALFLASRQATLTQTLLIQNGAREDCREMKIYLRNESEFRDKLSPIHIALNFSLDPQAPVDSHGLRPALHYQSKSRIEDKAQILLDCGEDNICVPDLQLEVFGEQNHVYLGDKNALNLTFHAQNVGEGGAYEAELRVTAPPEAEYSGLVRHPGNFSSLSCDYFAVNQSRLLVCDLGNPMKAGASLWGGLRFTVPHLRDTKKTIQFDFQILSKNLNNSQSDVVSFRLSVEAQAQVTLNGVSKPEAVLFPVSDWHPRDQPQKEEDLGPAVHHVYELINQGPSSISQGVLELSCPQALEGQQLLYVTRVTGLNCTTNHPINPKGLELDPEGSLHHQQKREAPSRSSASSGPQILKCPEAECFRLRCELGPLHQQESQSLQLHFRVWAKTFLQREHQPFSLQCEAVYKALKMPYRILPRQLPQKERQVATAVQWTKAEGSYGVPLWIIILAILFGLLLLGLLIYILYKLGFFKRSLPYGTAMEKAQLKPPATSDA
integrin α5β1 on cells, sequence (P05556 21-798, chain 2 of 2): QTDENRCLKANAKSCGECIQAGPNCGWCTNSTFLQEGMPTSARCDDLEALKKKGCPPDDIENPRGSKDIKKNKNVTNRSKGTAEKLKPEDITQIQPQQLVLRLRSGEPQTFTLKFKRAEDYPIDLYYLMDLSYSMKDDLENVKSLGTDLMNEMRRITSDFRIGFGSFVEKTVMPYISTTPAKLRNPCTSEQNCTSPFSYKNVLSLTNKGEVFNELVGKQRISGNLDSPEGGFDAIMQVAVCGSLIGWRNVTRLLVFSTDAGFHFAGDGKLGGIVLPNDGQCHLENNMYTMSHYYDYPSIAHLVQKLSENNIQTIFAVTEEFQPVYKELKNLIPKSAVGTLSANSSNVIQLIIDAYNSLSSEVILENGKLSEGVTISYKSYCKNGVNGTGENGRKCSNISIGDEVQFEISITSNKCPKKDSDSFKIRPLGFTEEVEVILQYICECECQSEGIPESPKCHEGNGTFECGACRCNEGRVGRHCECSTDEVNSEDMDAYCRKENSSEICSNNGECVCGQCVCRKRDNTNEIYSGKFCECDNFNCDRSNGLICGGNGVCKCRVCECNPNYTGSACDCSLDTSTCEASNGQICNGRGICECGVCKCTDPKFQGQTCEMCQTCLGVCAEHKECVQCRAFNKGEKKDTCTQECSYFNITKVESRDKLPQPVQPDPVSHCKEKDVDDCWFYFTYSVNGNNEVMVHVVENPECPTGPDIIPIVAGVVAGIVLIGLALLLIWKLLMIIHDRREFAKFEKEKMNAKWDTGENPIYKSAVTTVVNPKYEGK

- Kd: 150 ± 20 µM
Binder: GRRGDGATGH [RGD peptide (GRRGDGATGH)]
